How the values were obtained:
human CD33 C41A = human CD33 C41A (human, UniProt P20138 18-364); test: alanine scan, flow cytometry;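 also: HEK293-T cells transiently expressing single-residue alanine mutants of CD33 (alanine swapped to serine), antibody binding read by fluorescence in duplicate, background-subtracted, expressed relative to wild-type CD33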
[1] = molecular target: human CD33 extracellular region N20G (human, UniProt P20138 21-259); test: BLI Octet, IgG captured on AHC, CD33 analyte;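 also: CD33 variants and wild type run as analyte at 5, 50 and 500 nM, 700 s association then 1200 s dissociation, buffer-only reference subtracted, global 1:1 fit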
Protocol: (§1) Human CD33 wt and variants, were used as analyte at 3 different concentrations (500, 50 and 5 nM). Association of the analyte to the antibodies was monitored for 700 s and dissociation of the analyte from the antibodies was monitored for 1200 s. Reference subtraction was performed against buffer only wells. AHC tips were regenerated using 10 mM Glycine-HCl pH 1.7. Data were analyzed with Octet Data Analysis software HT 12.0. Data were fitted to a 1:1 binding model. Kinetic rates ka and kd and response signal were globally fitted.

[2] = molecular target: human CD33 extracellular region N20S (human, UniProt P20138 21-259); test: BLI Octet, IgG captured on AHC, CD33 analyte;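 also: CD33 variants and wild type run as analyte at 5, 50 and 500 nM, 700 s association then 1200 s dissociation, buffer-only reference subtracted, global 1:1 fit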
Protocol: as §1

[3] = molecular target: human CD33 extracellular region N20E (human, UniProt P20138 21-259); test: BLI Octet, IgG captured on AHC, CD33 analyte;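 also: CD33 variants and wild type run as analyte at 5, 50 and 500 nM, 700 s association then 1200 s dissociation, buffer-only reference subtracted, global 1:1 fit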
Protocol: as §1

[4] = molecular target: human CD33 extracellular region F21V (human, UniProt P20138 22-259); test: BLI Octet, IgG captured on AHC, CD33 analyte;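 also: CD33 variants and wild type run as analyte at 5, 50 and 500 nM, 700 s association then 1200 s dissociation, buffer-only reference subtracted, global 1:1 fit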
Protocol: as §1

[5] = molecular target: human CD33 extracellular region F21Q (human, UniProt P20138 22-259); test: BLI Octet, IgG captured on AHC, CD33 analyte
Protocol: as §1

[6] = molecular target: human CD33 extracellular region F21H (human, UniProt P20138 22-259); test: BLI Octet, IgG captured on AHC, CD33 analyte
Protocol: as §1

[7] = molecular target: human CD33 extracellular region W22T (human, UniProt P20138 18-259); test: BLI Octet, IgG captured on AHC, CD33 analyte
Protocol: as §1

[8] = molecular target: human CD33 extracellular region F44P (human, UniProt P20138 18-259); test: BLI Octet, IgG captured on AHC, CD33 analyte
Protocol: as §1

[9] = molecular target: human CD33 extracellular region P48F (human, UniProt P20138 18-259); test: BLI Octet, IgG captured on AHC, CD33 analyte
Protocol: as §1

[10] = molecular target: human CD33 extracellular region P48D (human, UniProt P20138 18-259); test: BLI Octet, IgG captured on AHC, CD33 analyte
Protocol: as §1

[11] = molecular target: human CD33 extracellular region P48S (human, UniProt P20138 18-259); test: BLI Octet, IgG captured on AHC, CD33 analyte
Protocol: as §1

[12] = molecular target: human CD33 extracellular region Y50S (human, UniProt P20138 18-259); test: BLI Octet, IgG captured on AHC, CD33 analyte
Protocol: as §1

[13] = molecular target: human CD33 extracellular region Y50D (human, UniProt P20138 18-259); test: BLI Octet, IgG captured on AHC, CD33 analyte
Protocol: as §1

[14] = molecular target: human CD33 extracellular region Y50R (human, UniProt P20138 18-259); test: BLI Octet, IgG captured on AHC, CD33 analyte
Protocol: as §1

[15] = molecular target: human CD33 extracellular region Y50E (human, UniProt P20138 18-259); test: BLI Octet, IgG captured on AHC, CD33 analyte
Protocol: as §1

[16] = molecular target: human CD33 extracellular region N100Q (human, UniProt P20138 18-259); test: BLI Octet, IgG captured on AHC, CD33 analyte
Protocol: as §1

[17] = molecular target: human CD33 extracellular region R119A (human, UniProt P20138 18-259); test: BLI Octet, IgG captured on AHC, CD33 analyte
Protocol: as §1

human CD33 T208A = human CD33 T208A (human, UniProt P20138 18-364); test: alanine scan, flow cytometry;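 also: HEK293-T cells transiently expressing single-residue alanine mutants of CD33 (alanine swapped to serine), antibody binding read by fluorescence in duplicate, background-subtracted, expressed relative to wild-type CD33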
human CD33 T211A = human CD33 T211A (human, UniProt P20138 18-364); test: alanine scan, flow cytometry;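 also: HEK293-T cells transiently expressing single-residue alanine mutants of CD33 (alanine swapped to serine), antibody binding read by fluorescence in duplicate, background-subtracted, expressed relative to wild-type CD33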
human CD33 A217S = human CD33 A217S (human, UniProt P20138 18-364); test: alanine scan, flow cytometry;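 also: HEK293-T cells transiently expressing single-residue alanine mutants of CD33 (alanine swapped to serine), antibody binding read by fluorescence in duplicate, background-subtracted, expressed relative to wild-type CD33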
human CD33 I227A = human CD33 I227A (human, UniProt P20138 18-364); test: alanine scan, flow cytometry
human CD33 Q228A = human CD33 Q228A (human, UniProt P20138 18-364); test: alanine scan, flow cytometry
human CD33 N230A = human CD33 N230A (human, UniProt P20138 18-364); test: alanine scan, flow cytometry
human CD33 V234A = human CD33 V234A (human, UniProt P20138 18-364); test: alanine scan, flow cytometry
human CD33 N237A = human CD33 N237A (human, UniProt P20138 18-364); test: alanine scan, flow cytometry
human CD33 T240A = human CD33 T240A (human, UniProt P20138 18-364); test: alanine scan, flow cytometry
human CD33 V196A = human CD33 V196A (human, UniProt P20138 18-364); test: alanine scan, flow cytometry
human CD33 D246A = human CD33 D246A (human, UniProt P20138 18-364); test: alanine scan, flow cytometry
human CD33 S248A = human CD33 S248A (human, UniProt P20138 18-364); test: alanine scan, flow cytometry
human CD33 Q251A = human CD33 Q251A (human, UniProt P20138 18-364); test: alanine scan, flow cytometry
human CD33 A261S = human CD33 A261S (human, UniProt P20138 18-364); test: alanine scan, flow cytometry
human CD33 G263A = human CD33 G263A (human, UniProt P20138 18-364); test: alanine scan, flow cytometry
human CD33 G264A = human CD33 G264A (human, UniProt P20138 18-364); test: alanine scan, flow cytometry
human CD33 G266A = human CD33 G266A (human, UniProt P20138 18-364); test: alanine scan, flow cytometry
human CD33 V267A = human CD33 V267A (human, UniProt P20138 18-364); test: alanine scan, flow cytometry

human CD33 extracellular region R119A, sequence (P20138 other isoform, or with tags, fused parts or gaps R119A R119A): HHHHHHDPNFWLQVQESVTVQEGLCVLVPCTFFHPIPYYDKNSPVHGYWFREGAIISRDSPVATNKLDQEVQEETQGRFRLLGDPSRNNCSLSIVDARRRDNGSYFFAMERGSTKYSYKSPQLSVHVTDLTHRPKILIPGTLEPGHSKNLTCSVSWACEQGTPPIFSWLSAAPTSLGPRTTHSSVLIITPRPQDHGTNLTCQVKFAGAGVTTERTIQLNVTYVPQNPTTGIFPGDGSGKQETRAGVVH
human CD33 extracellular region N20S, sequence (P20138 other isoform, or with tags, fused parts or gaps N20S N20S): as the sequence (P20138 other isoform, or with tags, fused parts or gaps R119A R119A) above, with N9S, A108R counted along it
human CD33 extracellular region N20E, sequence (P20138 other isoform, or with tags, fused parts or gaps N20E N20E): as the sequence (P20138 other isoform, or with tags, fused parts or gaps R119A R119A) above, with N9E, A108R counted along it
human CD33 extracellular region Y50R, sequence (P20138 other isoform, or with tags, fused parts or gaps Y50R Y50R): as the sequence (P20138 other isoform, or with tags, fused parts or gaps R119A R119A) above, with Y39R, A108R counted along it
human CD33 extracellular region N100Q, sequence (P20138 other isoform, or with tags, fused parts or gaps N100Q N100Q): as the sequence (P20138 other isoform, or with tags, fused parts or gaps R119A R119A) above, with N89Q, A108R counted along it
human CD33 extracellular region F21V, sequence (P20138 other isoform, or with tags, fused parts or gaps F21V F21V): as the sequence (P20138 other isoform, or with tags, fused parts or gaps R119A R119A) above, with F10V, A108R counted along it
human CD33 extracellular region P48S, sequence (P20138 other isoform, or with tags, fused parts or gaps P48S P48S): as the sequence (P20138 other isoform, or with tags, fused parts or gaps R119A R119A) above, with P37S, A108R counted along it
human CD33 extracellular region P48D, sequence (P20138 other isoform, or with tags, fused parts or gaps P48D P48D): as the sequence (P20138 other isoform, or with tags, fused parts or gaps R119A R119A) above, with P37D, A108R counted along it
human CD33 extracellular region F21H, sequence (P20138 other isoform, or with tags, fused parts or gaps F21H F21H): as the sequence (P20138 other isoform, or with tags, fused parts or gaps R119A R119A) above, with F10H, A108R counted along it
human CD33 extracellular region W22T, sequence (P20138 other isoform, or with tags, fused parts or gaps W22T W22T): as the sequence (P20138 other isoform, or with tags, fused parts or gaps R119A R119A) above, with W11T, A108R counted along it
human CD33 extracellular region P48F, sequence (P20138 other isoform, or with tags, fused parts or gaps P48F P48F): as the sequence (P20138 other isoform, or with tags, fused parts or gaps R119A R119A) above, with P37F, A108R counted along it
human CD33 extracellular region Y50S, sequence (P20138 other isoform, or with tags, fused parts or gaps Y50S Y50S): as the sequence (P20138 other isoform, or with tags, fused parts or gaps R119A R119A) above, with Y39S, A108R counted along it
human CD33 extracellular region N20G, sequence (P20138 other isoform, or with tags, fused parts or gaps N20G N20G): as the sequence (P20138 other isoform, or with tags, fused parts or gaps R119A R119A) above, with N9G, A108R counted along it
human CD33 extracellular region Y50D, sequence (P20138 other isoform, or with tags, fused parts or gaps Y50D Y50D): as the sequence (P20138 other isoform, or with tags, fused parts or gaps R119A R119A) above, with Y39D, A108R counted along it
human CD33 extracellular region F21Q, sequence (P20138 other isoform, or with tags, fused parts or gaps F21Q F21Q): as the sequence (P20138 other isoform, or with tags, fused parts or gaps R119A R119A) above, with F10Q, A108R counted along it
human CD33 extracellular region Y50E, sequence (P20138 other isoform, or with tags, fused parts or gaps Y50E Y50E): as the sequence (P20138 other isoform, or with tags, fused parts or gaps R119A R119A) above, with Y39E, A108R counted along it
human CD33 extracellular region F44P, sequence (P20138 other isoform, or with tags, fused parts or gaps F44P F44P): as the sequence (P20138 other isoform, or with tags, fused parts or gaps R119A R119A) above, with F33P, A108R counted along it
human CD33 G264A, sequence (P20138 18-364 G264A limits assumed): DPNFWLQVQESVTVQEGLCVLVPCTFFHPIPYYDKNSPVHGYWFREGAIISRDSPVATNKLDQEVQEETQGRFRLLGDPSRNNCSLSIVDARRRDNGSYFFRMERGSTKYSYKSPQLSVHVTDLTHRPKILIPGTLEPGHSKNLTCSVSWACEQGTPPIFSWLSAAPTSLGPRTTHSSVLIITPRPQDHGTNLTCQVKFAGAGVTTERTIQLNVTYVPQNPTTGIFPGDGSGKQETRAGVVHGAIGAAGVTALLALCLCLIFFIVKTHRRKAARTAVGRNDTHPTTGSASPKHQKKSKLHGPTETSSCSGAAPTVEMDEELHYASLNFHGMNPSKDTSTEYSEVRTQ

Row | % WT binding [1] [%] | % WT binding [2] [%] | % WT binding [3] [%] | % WT binding [4] [%] | % WT binding [5] [%] | % WT binding [6] [%] | % WT binding [7] [%] | % WT binding [8] [%] | % WT binding [9] [%] | % WT binding [10] [%] | % WT binding [11] [%] | % WT binding [12] [%] | % WT binding [13] [%] | % WT binding [14] [%] | % WT binding [15] [%] | % WT binding [16] [%] | % WT binding [17] [%] | Binder | also measured
1 | – | – | – | – | – | – | – | – | – | – | – | – | – | – | – | – | – | Refmab #4 (antibody, V domains shown, Full-length format is human IgG1 Fc silent (PG-LALA); The alanine scan used IgG or Fab) VH: QVQLVQSGAEVKKPGESVKVSCKASGYTFTNYGMNWVKQAPGQGLEWMGWINTYTGEPTYADKFQGRVTMTTDTSTSTAYMEIRNLGGDDTAVYYCARWSWSDGYYVYFDYWGQGTSVTVSS VL: DIVMTQSPDSLTVSLGERTTINCKSSQSVLDSSTNKNSLAWYQQKPGQPPKLLLSWASTRESGIPDRFSGSGSGTDFTLTIDSPQPEDSATYYCQQSAHFPITFGQGTRLEIK | Mean % WT Binding (human CD33 C41A): 9.8 % WT
2 | 115 | 84.1 | 100 | 101 | 89 | 108 | 87.9 | 87.4 | 9.11 | 5.75 | 21.8 | 22.6 | 0 | 0 | 16 | 114 | 95 | Refmab #4 (antibody, human IgG1, V domains shown) VH: QVQLVQSGAEVKKPGESVKVSCKASGYTFTNYGMNWVKQAPGQGLEWMGWINTYTGEPTYADKFQGRVTMTTDTSTSTAYMEIRNLGGDDTAVYYCARWSWSDGYYVYFDYWGQGTSVTVSS VL: DIVMTQSPDSLTVSLGERTTINCKSSQSVLDSSTNKNSLAWYQQKPGQPPKLLLSWASTRESGIPDRFSGSGSGTDFTLTIDSPQPEDSATYYCQQSAHFPITFGQGTRLEIK | –
3 | – | – | – | – | – | – | – | – | – | – | – | – | – | – | – | – | – | Refmab #6 (antibody, V domains shown, Full-length format is human IgG1 Fc silent (PG-LALA); also made as Fab; The alanine scan used IgG or Fab) VH: QVQLQQPGAEVVKPGASVKMSCKASGYTFTSYYIHWIKQTPGQGLEWVGVIYPGNDDISYNQKFQGKATLTADKSSTTAYMQLSSLTSEDSAVYYCAREVRLRYFDVWGQGTTVTVSS VL: EIVLTQSPGSLAVSPGERVTMSCKSSQSVFFSSSQKNYLAWYQQIPGQSPRLLIYWASTRESGVPDRFTGSGSGTDFTLTISSVQPEDLAIYYCHQYLSSRTFGQGTKLEIK | Mean % WT Binding (human CD33 T208A): 116 % WT binding; Mean % WT Binding (human CD33 T211A): 92.2 % WT binding; Mean % WT Binding (human CD33 A217S): 91 % WT binding; Mean % WT Binding (human CD33 I227A): 88.1 % WT binding; Mean % WT Binding (human CD33 Q228A): 100 % WT binding; Mean % WT Binding (human CD33 N230A): 83.8 % WT binding; Mean % WT Binding (human CD33 V234A): 109 % WT binding; Mean % WT Binding (human CD33 N237A): 101 % WT binding; Mean % WT Binding (human CD33 T240A): 97 % WT binding; Mean % WT Binding (human CD33 V196A): 116 % WT binding; Mean % WT Binding (human CD33 D246A): 106 % WT binding; Mean % WT Binding (human CD33 S248A): 94.4 % WT binding; Mean % WT Binding (human CD33 Q251A): 126 % WT binding; Mean % WT Binding (human CD33 A261S): 56.7 % WT binding; Mean % WT Binding (human CD33 G263A): 94.3 % WT binding; Mean % WT Binding (human CD33 G264A): 103 % WT binding; Mean % WT Binding (human CD33 G266A): 82.6 % WT binding; Mean % WT Binding (human CD33 V267A): 101 % WT binding
4 | – | – | – | – | – | – | – | – | – | – | – | – | – | – | – | – | – | Refmab #5 (antibody, V domains shown, Full-length format is human IgG1 Fc silent (PG-LALA); also made as Fab; The alanine scan used IgG or Fab) VH: QVQLVQSGAEVKKPGASVKVSCKASGYTFTNYDINWVRQAPGQGLEWIGWIYPGDGSTKYNEKFKAKATLTADTSTSTAYMELRSLRSDDTAVYYCASGYEDAMDYWGQGTTVTVSS VL: DIQMTQSPSSLSASVGDRVTINCKASQDINSYLSWFQQKPGKAPKTLIYRANRLVDGVPSRFSGSGSGQDYTLTISSLQPEDFATYYCLQYDEFPLTFGGGTKVEIK | Mean % WT Binding (human CD33 T208A): 100 % WT binding; Mean % WT Binding (human CD33 T211A): 80.4 % WT binding; Mean % WT Binding (human CD33 A217S): 121 % WT binding; Mean % WT Binding (human CD33 I227A): 105 % WT binding; Mean % WT Binding (human CD33 Q228A): 129 % WT binding; Mean % WT Binding (human CD33 N230A): 105 % WT binding; Mean % WT Binding (human CD33 V234A): 115 % WT binding; Mean % WT Binding (human CD33 N237A): 91.8 % WT binding; Mean % WT Binding (human CD33 T240A): 96.9 % WT binding; Mean % WT Binding (human CD33 V196A): 84.5 % WT binding; Mean % WT Binding (human CD33 D246A): 115 % WT binding; Mean % WT Binding (human CD33 S248A): 105 % WT binding; Mean % WT Binding (human CD33 Q251A): 94.7 % WT binding; Mean % WT Binding (human CD33 A261S): 79.8 % WT binding; Mean % WT Binding (human CD33 G263A): 104 % WT binding; Mean % WT Binding (human CD33 G264A): 94.4 % WT binding; Mean % WT Binding (human CD33 G266A): 111 % WT binding; Mean % WT Binding (human CD33 V267A): 95.2 % WT binding
5 | 0 | 37.8 | 3.46 | 0 | 0 | 0 | 15 | 0 | 76.2 | 71.9 | 79.5 | 75.5 | 71.5 | 73.3 | 101 | 107 | 121 | Refmab #1 (antibody, human IgG1, V domains shown, also called hP67.6; Absolute Antibody Cat. No. Ab00283-10.0) VH: EVQLVQSGAEVKKPGSSVKVSCKASGYTITDSNIHWVRQAPGQSLEWIGYIYPYNGGTDYNQKFKNRATLTVDNPTNTAYMELSSLRSEDTAFYYCVNGNPWLAYWGQGTLVTVSS VL: DIQLTQSPSTLSASVGDRVTITCRASESLDNYGIRFLTWFQQKPGKAPKLLMYAASNQGSGVPSRFSGSGSGTEFTLTISSLQPDDFATYYCQQTKEVPWSFGQGTKVEVK | –
6 | – | – | – | – | – | – | – | – | – | – | – | – | – | – | – | – | – | Refmab #3 (antibody, V domains shown, Full-length format is human IgG1 Fc silent (PG-LALA); The alanine scan used IgG or Fab) VH: QVQLVQSGAEVKKPGSSVKVSCKASGYTFTDYNMHWVRQAPGQGLEWIGYIYPYNGGTGYNQKFKSKATITADESTNTAYMELSSLRSEDTAVYYCARGRPAMDYWGQGTLVTVSS VL: DIQMTQSPSSLSASVGDRVTITCRASESVDNYGISFMNWFQQKPGKAPKLLIYAASNQGSGVPSRFSGSGSGTDFTLTISSLQPDDFATYYCQQSKEVPWTFGQGTKVEIK | Mean % WT Binding (human CD33 C41A): 30.7 % WT
7 | 0 | 34.4 | 6.04 | 0 | 0 | 0 | 3.39 | 0 | 74.3 | 76.4 | 74 | 70.9 | 71 | 70.5 | 120 | 124 | 118 | Refmab #3 (antibody, human IgG1, V domains shown) VH: QVQLVQSGAEVKKPGSSVKVSCKASGYTFTDYNMHWVRQAPGQGLEWIGYIYPYNGGTGYNQKFKSKATITADESTNTAYMELSSLRSEDTAVYYCARGRPAMDYWGQGTLVTVSS VL: DIQMTQSPSSLSASVGDRVTITCRASESVDNYGISFMNWFQQKPGKAPKLLIYAASNQGSGVPSRFSGSGSGTDFTLTISSLQPDDFATYYCQQSKEVPWTFGQGTKVEIK | –
